Laboratory results taken from the nanobody polyreactivity screen of Harvey et al. (2022).

Assay: yeast display, Sf9 membrane polyspecificity reagent, FACS + sequencing; frameworks hold sequencing errors
In short: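 Using colony PCR, genes from sorted yeast display clones were amplified, then sequenced on MiSeq at 2 × 250 and filtered by CDR length. The clones had been stained with 10% biotinylated, detergent-solubilized Sf9 membrane reagent for 1 hour at 4 °C and sorted by FACS into low and high (top ~1%) gates on anti-HA and streptavidin fluorescence. Polyreactivity labels come from the gate of origin.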

Sequence | polyreactivity (PSR sort gate)
QFQLVESGGVLDQAGGSLRLSCAASGSNFTIYAIGWYRQAPGKERELVADISSGGSTYYADSVKGRFTISRDNAKNTVYLQMNSLNPEDTAVYYCAAGVFFFTFVYWGQGTQVTVSS | low polyreactivity
QVQLVESGGGLVQAGGSLRLSCAASGFIFWYNAMGWYRQAPGKERELVASISGSGGSTYYADSVKGRFTISRDNAKNTVYLQMNSLKPEDTAVYYCAVYFFSFWGQGTQVTVSS | low polyreactivity
QVQLVESGGGLDQARGSLRLSCAASGGIFDHNAMGWYRQAPGKEREFVAAITWSGGGTYYADSVKGRFTISRDNAKNTVYLQMNSLKPEDTAVYYCAATVYGIYYYGKDRYDYWGQGTQVTVSS | low polyreactivity
QVQVVESGGGLVQAGGSLRLSCAASGFTFDYYNMGWYRQAPGKERELVAAITSGASTNYADSVKGRFTISRDNAKNTVYLQMNSLKPEDTAVYYCAAVLAGGVYWVVHYDYWGQGTQVSVSS | low polyreactivity
QVQLVESGGGLVQAGGSLRLSCAASGSIFRQYAMGWYRQAPGKERELVATISRSGGSTYYADSVKGRFTISRDNAKNTVYLQMNSLKPEDTAVYYCAASRYKKSYREWWVGSWGQGTQVTVSS | high polyreactivity
QVQLVESGGGLVQAGGSLRLSCAASGITLFGYAMGWYRQAPGKERELVAAITSGGSTYYADSVKGRFTISRDNAKNTVYLQMNSLKPEDTAVYYCATSYVYYKYYSQEIYVYGFEYWGQGTQVTVSS | high polyreactivity
QVQLVESGGGLVQAGGSLRLSCAASGFTFFPYAMGWYRQAPGTERELVAAITETGGRTYYADSVKGRFTISRDNAKYTVYLQMNSLKPEDTAVYYCAKRGLHGYFVRGERGYWGQGTQVTVSS | low polyreactivity
QVQLVESGGGLVQAGGSLRLSCAASGFIFWQYTLGWYRQAPGKERELVAAINGGSSTYYADSVKGRFTISRDNAKNTVYVQKNSRKPEDTAVYYCAADRYLYHDRYEYDYWGQGTQVTVSS | high polyreactivity
QVQLVESGGGLVQARRSLRLSCAASGFTVKRYAMGWYRPEPGKEREFVAAITRGGGSTYYADYVKGRFTISRDNAKNTVYLQMNSLKPEDTAVYYCNARSRSYVPYYYWGQGTQVTVSS | high polyreactivity
QVQLVESGGGLVQAGGSLRLSCAASGITYGIYSMGWYRQAPGKERELVAAIDGSDGSTYYADSVKGRFTISRDNAKNTVYLQMNSLKPEDTAVYYCNADTGGYYVTGSYLYNEYDYWGQGTQVTVSS | low polyreactivity
QVQLVESGGGLVQAGGSLRLSCAASGSTFVPNAMGWYRQAPGKERELVAAISSVGSTNYADSVKGRFTISRDNAKNTVYLQMNSLKPEDTAVYYCAVRYPWRYFKYGYWGQGSQVTVSS | low polyreactivity
QGQLVESGGGLVQAGGSLRLSCAASGSIFGGYGMGWYRQAPGKERELVAAITSGSSTYYADSVKGRFTISRDNAKNTVYLQMNSLKPEDTAVYYCAARPYPHSAYEGDYWGRGTQVTVSS | low polyreactivity
QVQLVESGGGLVQAGGSLRLSCAASGRTFYYYAMGWYREAPGKERELVAAINSGVTTSYADSVKGRFTISRDNAKNTVYLQMNSLKPEDTAVYYCAARTFSAFWRGGYDYWGQGTQVTVSS | low polyreactivity
QVQLVESGGGLVQAGGSLRISCAASGSIFWDNVMGWYRQAPGKERELVADIDSWDGGSTYYADSVKGRFTISRDNAKNTVYLQMNSLKPEDTAVYYCNTDVLWWRGGDDYWGQGTQVTVSS | low polyreactivity
QVQLVESGGGLVQAGGSLRLSCAASGYTFHHNTMGWYRQAPGKERELVATISDGGSTNYADSVKGRFTISRDNAKNTVYLQMNSLKPEDTAVYYCAALYQQFQSALVPYFDVIEEDYWGQGTQVTVSS | low polyreactivity
QVQLVESGGGLVQAGGSLRLSCAASGSTFLSNAMGWYRQAPGKERELVAGITSGTSTYYADSVKGRFTISRDNAKYTVYLQMNSLKPEDTAVYYCNADDAEVLYQYVEYDYWGQGTQVTVSS | low polyreactivity

Sequence | polyreactivity (PSR sort gate)
QVQLVESGGGLVQAGGSLRLSCAASGITFGWYAMGWYRQAPGKERELVAAISGRGGRTYYADSVKGRFKISRDNAKNTVYLQMNSLKPEDTAVYYCAARARRWSYITGSYVLIEYEYWGQGTQVTVSS | high polyreactivity
QVQLVESGGGLVKAGGSLRLSCAASGRTFGSYAMGWYRLAPGTERELVAAITGSGAGTYYADSVKGRFTISRDNAKNTVYLQMNSLKPEDTSVYYCAARRPWQFYYWVQGTQVTVSS | high polyreactivity
QVQLVETGGGLVQAGGSLRLSCAASGSIFVTNAMGWYRQPPGKEREFVAAISSSDDSTYYADSVKGRFTISRDNAKNTVYLQMHSLKPEDTAVYYCASDWLFNIIAYDYGLDSWGQGTQVTVSS | low polyreactivity
QVQLVESGRGLVQAGGSLRLSCAASGITFGYYDMGWYRQAPGKERELVAAIDWTGGGTYYADSVKGRFTISRDYAKNTVYLQMNSVKPVDTAVYYCIDHAGGDSGVSYYPEYDYWGQGTQVTLSS | low polyreactivity
QDQLVESVGGLVQAGGSLRLSCAASGSIFRLYAMGWYRHAPGKERELVAGITSSDGSTYADSVKGRFTISRDNAKNTVYLQMNSLKPEDTAVYYCAARGYVRWYNRYDYWGQGTQVTVSS | low polyreactivity
QVQLVETGGGLVQAGGSLRLSFGASGSTFSQYGMGLYRQAPGKVRELVAAIRRSGGRTYYADSVKGRFTISLDNAKNTVYLQMNSLKPEDTAVYYCAADEYRYYFYRPGIGYDYWGQGTQVTVSS | low polyreactivity
QVQLVESGGGLVQAGGSLRLSCAASGFTFDSNAMGWYRQAPGKERELVAAISSSGGSTYYADSVKGRFTISRDNAKNTVYLQMNSLKPEDTAVYYCNARRRTVPYRYDYWGQGTQVTVSS | high polyreactivity
QVQLVESGGGLVQAGGSLRLSCDASGFIFNAYAMGWYRQAPGKERELVAAISTRGSNTYYADSVKGRFTISRDNAKNTVYLQMNSLKPDDTAVYYCAARGYVTFSKSNYWGQGTQVTVSS | high polyreactivity
QVQLVESGGGLVQAGGSLRLSCAASGFTFDYYAMGWYRQAPGKERELVAAISSSGGSTYYADSVKGRFTISRDNAKNTVYLQMNSLKPEDTAVYYCATGHSKKYDYWGQGTQVTVSS | high polyreactivity
QVQLVESGVGLVQAGGSLRLSCAASGSTFYPNAMGWYRQAPRKERELVAAISRGTRTKYADSVKGRFTISRDNAKNTVYLQMNSLKPEDTAVYYCAADTGTGLDWGQGTQVTVSS | high polyreactivity
QVQLVESGGGLVQAGGSLRLSCAASGITLSYNVMGWYRQEPGKEREFVAAITGGRTYYADSVKGRFTISRDNAKNTVYLQMNSLKPEDTAVYYCAADAPGHEYYYWGQGTQVTVSS | high polyreactivity
QVQLVESGGGLVQAGGSLRLICAASGFIFGAYTMGWYRQAPGKERELVADISRRGGTTYYADSVKGRFTISRDNAKNTVYLQMISLKPEDTAVYYCAKVANFWYITTLRGYYYWGQGTQVTVSS | high polyreactivity
QVQLVESGGGLVQAGGSLRLSCAASGRIIGPYTMGWYRQAPGKEMEFVAAITRRGGSTYYADSVKGRFTISRDNAKNTVYLQMNSLKPEDTEVYYCAAVGQKRSLGYSWGQGTQVTVSS | low polyreactivity
QVQLVESGGGLVQAGGSLRLSCAASGFILPHNAMGWYRQAPGKERELVAAISGSGGSTYYADSVKGRFTISRDNAKNTVYLQMNSLKPEDTAFYYCNADVWVYPYDYWGQGTQVTVSS | low polyreactivity
QVQLVESGAGLVQAGGSLRLSCAASGIIFTDYAMGWYRQAPGKERELVAANSSGGGSTYYADSVKGRFTISRDNAKNSVYLQLNSLKPDDTAVYDCAAQSSGSYGFDHWGQGTQVTVSS | high polyreactivity
